Measurements as given in the DeepSol protein solubility set.

Experiment: soluble on expression in E. coli; label from the status in PepcDB or PDB records

Sequence	soluble on expression in E. coli
MKMKLTAAIIAAFVIIMGCAGGPKASKADELDLAIRDTSDYLNDNIPKGNKIIILNIQSDYASLSDYIIDELIANAVNDKIFKVVDRAQLEQIRAELNFQWSGEVDDKSALEIGKFLGAQTIVSGAISELGDRYRMRLRALNVQTSQVQGQYNRNIAAGKTIAALMKGGKSANTVYGGRTASGNANDTTAANQTPSRQPATPSSPQGSTKPVTTTYKIGDTGPAGGLIFYDKGNNIGGWRYLEAAPSDLGPNKFITEDPGSLPKNLYDLWEKTDGDKGRGVGKGKYNTEFLMGIAQARGGFNWAIRLCDEYELNGYNDWFMPSRDELNFMYGNLHMKGLGNFRLEQYWSSTGWQDTWGSYSAWYINFEDGTAAYQNASQPRRFRPIRQF	not soluble
MKMKSLFVAMITFFSAAPFAHWQPIGNAEYTWGPFHVYTIGLFSETGTYQENERPLMLSFKYEKPIEGKNFAITLIKEIETLKLNDGDTQSWLKEMQATFPDFSPNDILNYIALPDRGYFVLNDTVLEHDFDAKFNQAFIGIWLAPNSTFVKLQPQLLGKTKSNHEATEFYLKPEIESFDEQDSTPELPPNYLLDSQKKSQG	not soluble
MKNADKNFEKEKYIDSLRDYLAVLDKVDDESLKAEICYKVSQIYHYLQKDDPQNALKYAQMSMDLHAKHGEDDLTVLDLINIASILMDSGDKKGALQKLDEAIQKAKDMGDDEIQLIAMSSKASMIAEDNREEALKLYQEVMRKSQEIGDIEDYFDAVQGIVNMVREEDEHRAFEMIMKAIEELENYISGIKSKKEKKDVADSFSYLYDTASDIAMSIGDVDQAMEIAKRLQKIVS	not soluble
MKNFLLLTLILLTACNNSEENTQSIIKNDINKTIIDEEYVNLEPINQSNISFTKHSWVQTCGTQQLLTEQNKESISLSVVAPRLDDDEKYCFDFNGVSNKGEKYITKVTLNVVAPSLEVYVDHASLPTLQQLMDIIKSEEENPTAQRYIAWGRIVPTDEQMKELNITSFALINNHTPADLVQEIVKQAQTKHRLNVKLSSNTAHSFDNLVPILKELNSFNNVTVTNIDLYDDGSAEYVNLYNWRDTLNKTDNLKIGKDYLEDVINGINEDTSNTGTSSVYNWQKLYPANYHFLRKDYLTLEPSLHELRDYIGDSLKQMQWDGFKKFNSKQQELFLSIVNFDKQKLQNEYNSSNLPNFVFTGTTVWAGNHEREYYAKQQINVINNAINESSPHYLGNSYDLFFKGHPGGGIINTLIMQNYPSMVDIPSKISFEVLMMTDMLPDAVAGIASSLYFTIPAEKIKFIVFTSTETITDRETALRSPLVQVMIKLGIVKEENVLFWADLPNCETGVCIAV	soluble
MKNILVFLMLGVMLSALQELRYPSGYRVNGSRVFYTYIELTEIDMTTFEILNERYAKDKNAVYYEGKVIVNVDPEDFELLGDFFGKTKNNIYIGNTIIKDADINSFELLGHSRSRDKNHVFFADKILKNADPATYIVFNNKYAKDKNHVYFWDKEIENADAPTFEVLNGEYGKDKNRVYYNSRVVRKADPATFRILEGPFSKDKNYVYVTGEIFEKADVKTFQTLGDYGYAKDKRYVYRYNKILEGEKPADFLPPPQPVIMY	not soluble
MKNKADNKKRNFLTHSEIESLLKAANTGPHAARNYCLTLLCFIHGFRASEICRLRISDIDLKAKCIYIHRLKKGFSTTHPLLNKEVQALKNWLSIRTSYPHAESEWVFLSRKGNPLSRQQFYHIISTSGGNAGLSLEIHPHMLRHSCGFALANMGIDTRLIQDYLGHRNIRHTVWYTASNAGRFYGIWDRARGRQRHAVL	soluble
MKNKGLLLKVSTGLAAVSFLFSEYLFKISFKRVDHVPETSQEKQKYAASYWEYVDWFRRINKEHWTFQTKNETERMSAYFIPSKEENSKKVVIIAHGYKGNGETMSSYAKMFYEMGFNVLLPDDRGHGQSMGEYISFGWLDRLDYLQWLKKIIKRVGPKSEILLFGVSMGASTVEMLSGEDLPSQVKCVIADCGYSSIDEEMTFLLKHHYHLPKYPFYPLVSTINRYRLGYYLGDVSSVEQLKKNKLPIFFIHGENDDYVPSYMSLENYEATTAAKELWIVNNATHAESYWLDPLEYKKRIKDFLNKYFNDKN	not soluble
MKNKTKNATLKSIIDVILYENPSTQDEIAERLGITRRYVTKLLQPLIREGVVRRAYIVDIKKFDEFPELFGEEVTSREYAGSFFIKEILRDMAQHVCKQLNKSFRSLEEYDEDLANEALKMDYITNTMHEKVRSSVDTAIAMNPYSEFSKTMAFTEIAYDLERIGDHSAIIANFAIKESYEVDPAMMEYLRDMFSIAVEMVKTAMDAFLNEKLELKATLMSLEDDIHRIQKNALNCVATQMAETPFEDKERSTYYISLSRVVKTLERIADISIEIFDTAGEYYRNIPRTTTPERFRRREREES	soluble
MKPATLTAELDVRSGGRYRISFVSDDGEYFEAGGTYREVVPNELLVFTWAWHSTPERESLVTISFKPDSAGTLMIFHHAQFFDEAARDNHRRGWSSFLDKLDAFVALEHHHHHH	not soluble
MKPDIYALLERALLSGDPDEKGRLTDEAFAAVQNMDGAETNTPPLDFPRAGRPDKPVLVAPSQLTPRKMNTTEGYAAMLHAIAHIEFNAVNLALDAAYRFRTLPFQFVRDWVKVAKEEVYHFRLMRERLRAFGFDYGDFEAHNHLWDMAYKTAYDPLLRMALVPRVLEARGLDVTPGIRAKVAQRGDSETCGVLDIIYRDEVGHVAIGNRWYQHLCRERGLEPIALFRSLIARYDMFIFRGYVNIEAREKAGFSRFELDMLEDFEQSLKQNKNTVMGHHHHHHSH	soluble
MKPNITWGLQKIQAHGIADNTIYATEGTQIIFTVTSPWIPVFKVNDDVKIALTLTRHEEAWWIINQSTEYCCTVNDQIVEPHHRMRLNEGDLIEWGLSS	not soluble
MKPSVILYKALPDDLLQRLQEHFTVHQVANLSPQTVEQNAAIFAEAEGLLGSNENVNAALLEKMPKLRATSTISVGYDNFDVDALTARKILLMHTPTVLTETVADTLMALVLSTARRVVEVAERVKAGEWTASIGPDWYGTDVHHKTLGIVGMGRIGMALAQRAHFGFNMPILYNARRHHKEAEERFNARYCDLDTLLQESDFVCLILPLTDETHHLFGAEQFAKMKSSAIFINAGRGPVVDENALIAALQKGEIHAAGLDVFEQEPLSVDSPLLSMANVVAVPHIGSATHETRYGMAACAVDNLIDALQGKVEKNCVNPHVAD	soluble
MKPVYLAMNYFGPHEHSIIDFSKLESTPIFLISGDTGAGKSTIFDAMTFALFGSTTNDGTDGRAAKEMRSQFAPADQPTSVTFYFEQGNQLYKIARSPEQYLAKKKGSGLTKKNSTAKLAVVDHVGGVEIESIATKPADVGPEITTILNLTADQFKKIILLPQNDFSEFLKSKTTDKEKILKKIFGTQLYSDFTAELKAEYQTASKTGDQFVADLRVALASATWNDEEQAQLQAVPDNQKIPLLRAFVTTRQSAFDQAQQT	not soluble
MKQGLQLRLSQQLAMTPQLQQAIRLLQLSTLELQQELQQALENNPLLEQTDLHDEIDTQQPQDNDPLDTADALEQKEMPEELPLDASWDEIYTAGTPSGPSGDYIDDELPVYQGETTQSLQDYLMWQVELTPFSDTDRAIATSIVDAVDDTGYLTVSLDEIRESMGDVEVDLDEVEAVLKRIQRFDPVGVAAKDLRDCLLIQLSQFDKSTPWLEEARLIICDHLDLLANHDFRTLMRVTRLKEEVLKEAVNLIQSLDPRPGQSIQTGEPEYVIPDVLVRKHNGRWTVELNSDSIPRLQINQHYAAMCNSARNDADSQFIRSNLQDAKWLIKSLESRNDTLLRVSRCIVEQQQAFFEQGEEYMKPMVLADIAQAVEMHESTISRVTTQKYLHSPRGIFELKYFFSSHVNTEGGGEASSTAIRALVKKLIAAENPAKPLSDSKLTSLLSEQGIMVARRTVAKYRESLSIPPSNQRKQLV	not soluble
MKQRDSLDEKRRQLTYFTSCNAGTCQCRGFRPVLNHEDETVERRATRAERENDFAPMTRDLETLGSEEIIECRTCGHSISFHAEPLKYLSQEDLDTYTDQISDLQTCCSELSEIDPSHESLQTLYITMQILLKSLRTLTPVDVPFIGKPNFEPESLSPYILVKKFIASRPVDNAEKQRLAEIGTLFLTEMNHWKLEGFQSLADKLNVPLEQGKYRMMYVRMDYYVNMPAKYVSFKQFQTVDIFGEKFTTTFCNYLINVLNTGNYTPFGLSESDLEENSEDLITFATDLRRYLETEDPQSTSTTNRRKDSISTEDVILKYVKRKKPTDHSESSSPRELSTSPVEEPRRRKKEPSSSAKKSPETEESMALLRSLIRAIKFEGDLDAMEPKTKVEFEALNTEVSRGLSALQEEESGLIEFRVIGNDLDPFQHHEQLVHLVELQNLFGAQLPKMPKEYVTRLIFDSRHQNMVILKRDMGVIGGICFRTFPSRGFVEIVFCAITAMEQVKGYGTHLMNHCKDYMIKNKIYHMLTYADEFAIGYFTKQGFSEKLEINDTVYQGWIKEYEGATLMGCHLHPQISYTKFPDFSKGIQALHCGYKSENGAESRGKVFGGLEHLFRESSPQLLELRKVPGTDSLKMHKKSCYHLDERDDSLDSKIGAILKKLTADKNAWPFASPVDVKEVPEYYDHIKHPIDFKTMQEKLKRKAYTHQHLFIADLNRLFQNCYVFNGAEAVYYKYGYKLNELALKLLKTSFPESSWYPELPEQKPLC	not soluble
MKQSIRHNKIIELVNQLGYVSTEELVAQLAVSSQTIRRDLNELAEKNLLRRHHGGAGMPSNNENSDYSERKKFFSAQKNIIAQQVAEMIPNGSSLFLDIGTTSEAVAYALLSHQHLRIVTNNLNAAHILMQKDDFQITIAGGDLRADGGIIGEATVNFISEFRLDFGILGISAIDQDGSMLDYDYHEVQVKRALMQSSRQVILVTDHSKFNRRAIVRLGNISEVNYLFTDLPLPLELQQYLAPTNVTVYICNNLEHHHHHH	soluble
MKRCLDKGKTMDALKHALQMLNEMRTAELSPKFYYRLYMDSMHELQCLEVNLVQEYAQEPAKLGNLYECVQYASAIIPRLYLLVTIGGVFIKCGLGSRKEILKDLVEMCRGVQHPLRGLFLRNYLMQCTRSVLPDFPETEEMLVAHNDNLSKGTPKLKPRDGTVDDTIDFVLINFAEMNKLWVRMQHQGPSKEKEKREKDRMELRILVGTNLVRLAQLEALTEEMYVKDVLPSILEQIVSCRDPISQEYLMECVIQVFADDFHLATLTEFLNACGQLQQDVNIKILLIALVDRLALYTTSYNEGQPAPTKMQLFEIFSEQATTLIKNRPDMPLDDIVALHVSLVSLAVKCYPDRQDYANMTFQGLRQVIEEKGVTDIEAFGKVGRELTKLLNIPIDEYKNVLRLSQLPEYIKVMNYFDYRGQCNIASYMIQNMLEEETVFRNQDDVDSAFSLISSLLKDQEKQSSDSHETEEFADEQNLVARLLHLIRADDVDSQFLLLNSARKTLGEGGRHRLRYTLPPIIFELYRLVLQFSDMKDEDDKWDAKIRKMFVCAMGTIGALVSTAELAELPMKLYLNGAITADRVPFEDNHTVVYEFVSKALSILEDDVVDSRDRVRCLHLTVGTLLKTTHLPEENWQPLANQTVLAAAKMFKKPDQVRSLVTVAALYWHGQTLETNGEKMKNGKKVVDILRKAAKIARECLEPLVQQQLFIQLLSAYTYYYEDNCSEVNVDHIEELIARTQDNAVQLDVSAEADSLEKQLGEAIRRLQLAKLDVAAAQATTIRSEPELPQPPS	soluble
MKRFFALVHKDEDSAFGVQFPDFEGLFSAADEEENLIINATEALQLYCEDMDTVPVPLKFEEVIQQKAVKKALSEGAFLIQVPFIENDSEVVRTNISIERGLLRAIDNCAQERGLTRSAFLATAARHELNI	not soluble
MKRFFLKTILAAFCVYVPAILNTAYACTRIVYQGPNGTIITARSMDWKGEIPANLWIFPRGIERNGEAGSTSVKWKSTYGSVITSSWDIASSDGMNEKGLVGNLLWLVESTYPKFVKDKDKPGLAVSLWLQYVLDNFATVSEAVAFLEKEPFVVASSHIPGTAIFATVHLSISDATGDNAIFEYIGGKLVIHHDRSYVTMTNSPVFDEQLAINTYWKNIPGTVMLPGTNRAADRFVRASYYIDAIPKTDNTRVALPSVFSVIRNCSVPLGISSEAEPNISSTRWRTVSDQKNLVYYFDNVLNPNVVWVEFSKIDFSEKAKVKKLTLANNENYSGEASMNFKAALPFTFAGLD	not soluble
